Data reported in patent US20050260207A1 (published 2005).

Molecular target: recombinant human cathepsin B (human, UniProt P07858 80-333)
Assay: Western blot of recombinant human cathepsin B, goat anti-human IgG-HRP as secondary antibody
Text: A: polyacrylamide gel electrophoresis of recombinant human cathepsin B (1) and of standards (2); B: Western blot—cathepsin B (1) stained with chimeric 2A2 antibody. Goat anti-human antibody (IgG) conjugated with horseradish peroxidase was used as a secondary antibody. As the substrate 0.05% diaminobenzidine (DAB) and 0.01% of H₂O₂ in 0.05M Tris/HCl buffer, pH 7.5 were used.

binding result: binds
B1: chimeric 2A2 antibody, expressed in Chinese hamster ovary (CHO) cells (antibody, V domains shown)
VH: QVQLQQSGAELVRSGASIKLSCTASGFNIKDYYMHWVKQRPEQGLEWIGWIDPENGDTEYAPKFRGKATMTADTSSKTAYLQLSSLTSEDTAVYYCNARRHGYYEMDYWGQGTSVTVSS
VL: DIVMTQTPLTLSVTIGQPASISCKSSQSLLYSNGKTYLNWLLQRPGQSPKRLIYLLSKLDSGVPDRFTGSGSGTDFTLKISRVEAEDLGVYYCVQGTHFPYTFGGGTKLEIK
notes: A secretion leader was used for expression and is not part of the mature protein; also called chimeric antibody 2A2; 2A2 chimeric antibody; not shown: human IgG1 heavy chain constant region (human Cgamma1 region from pUC/hIgG1); human kappa light chain constant region (human Ckappa gene from pUC/hCK)
